For one protein, Km results are on record in PMC6273887, “cDNA Isolation and Functional Characterization of UDP-D-glucuronic Acid 4-Epimerase Family from Ornithogalum caudatum” (Molecules, 2016).

Substrate in the series: O=C(O)[C@H]1O[C@H](OP(=O)(O)OP(=O)(O)OC[C@H]2O[C@@H](n3ccc(=O)[nH]c3=O)[C@H](O)[C@@H]2O)[C@H](O)[C@@H](O)[C@@H]1O
Briefly: HPLC of UDP-GalA formation, Lineweaver-Burk plot. It counts as biochemical, Albuca bracteata. The conditions noted are these: 100 mM PBS, pH 7.8, 37 °C, 20 min, 0.156-10 mM UDP-GlcA, unpurified Pichia supernatant, substrate misprinted UDP-D-Glc, UDP-GlcA in b32 and b56.

B1: OcUGlcAE3 (Albuca bracteata) (protein)
chain: MDAMISPSTPGKFKPEKPHHHLHHHHHRPLFRLQHSPLFKCGLIVVCASVVVVLLLCLAPSHPSSSSSSSSSPFAASRIERRSLSASSSSSWGGAEWEKRVRYSARIRRVGGFSVLVTGAGGFVGTHVSAALKRRGDGVLGLDCFNDYYEPSLKRARQALLDRIGVFVVEGDINDGPLLRKLFDVVPFTHVMHLAAQAGVRYAMKNPASYVHSNIAGLVTLLEACKSADPQPAVVWASSSSVYGLNTKVPFSEFHRTDRPASLYAATKKAGEEIAHTYNHIYGLSITGLRFFTVYGPWGRPDMAYFFFTNDLLNGKPITIFEGPKGESVARDFTYIDDIVQGCIGALDTAKKSTGTGGKKRGPAQLRVYNLGNTSPVPVTELVTILERLLKVKANKKVVKMPANGDVQFTHANISLAQRELGYHPTTDLKTGLKRFVRWYIEYYNPPGVASLTKKSARSNSS
notes: full-length ORF (1389 bp); 12,000 g/160,000 g lysate supernatant, unpurified
As for B1, the Km – broadly, the concentration of substrate that gives half-maximal velocity – worked out at 170 ± 70 µM.
